Tested on: O=S(O)(O)=S
Test: purified protein
Settings: pH 8.0; 37.0 °C

CysA2 (Mycobacterium tuberculosis H37Rv)
Km: 2970 ± 50 µM
